What all share (conditions): both partners purified
In experiment [1] the target is T1, tag free LigB12 (amino acids 1,047–1,119 in LigB) (L. interrogans serovar Pomona).
T1 construct: LigB, 12th Ig-like domain, amino acids 1,047–1,119 in LigB; from pET28-SUMO; also called wild-type LigB12; LigB12 WT; source: E. coli Rosetta, purified (Ni-NTA, Ulp-1 digestion, second Ni-NTA, size exclusion)
The experiment can be described thus: SPR; Biacore 3000; tag free LigB12 immobilised on CM5 (about 1,000 RU); HTE truncates 0 to 5 μM injected in PBS at 30 μL/min, 25°C; 1:1 Langmuir model.

Experiment [2] deals with T2, GST tagged LigB4 (amino acids 307–403 in LigB) (L. interrogans serovar Pomona).
T2 construct: Leptospira immunoglobulin-like protein B (LigB), 4th Ig-like domain, amino acids 307–403 in LigB; constructed into pGEX-6P-1 and pGEX-4T-2; also called GST-LigB4; 4th domain of LigB; source: E. coli Rosetta, purified (glutathione agarose)
The experiment is described as follows: ELISA; HTE17-20, HTE20, HTE20N, HTE20C or BSA coated (1 μM/well); GST tagged LigB4 or LigB12 titrated 0 to 10 μM, 1 h at 37°C; HRP anti-GST; KD from a saturation fit of OD630.

The target in experiment [3] is T3, GST tagged LigB12 (amino acids 1,047–1,119 in LigB) (L. interrogans serovar Pomona).
T3 construct: LigB, 12th Ig-like domain, amino acids 1,047–1,119 in LigB; constructed into pGEX-6P-1 and pGEX-4T-2; also called GST-LigB12; 12th domain of LigB; source: E. coli Rosetta, purified (glutathione agarose)
The description is as above.

B1: HTE17-20 (17th to 20th exon of human tropoelastin) (domain or fragment)
chain: GVGTPAAAAAAAAAAKAAKYGAAAGLVPGGPGFGPGVVGVPGAGVPGVGVPGAGIPVVPGAGIPGAAVPGVVSPEAAAKAAAKAAKYGARPGVGVGGIPTYGVGAGGFPGFGVGVGGIPGVAGVPGVGGVPGVGGVPGVGIS
In the case of B1, the Kd in experiment [1] was found to be 850 nM; in experiment [2], 780 nM; in experiment [3], 780 nM. This molecule displayed a koff in experiment [1] of 0.0011 s⁻¹. This molecule also showed an on-rate constant (kon) in experiment [1] of 1300 M⁻¹ s⁻¹.
